Values of other authors in publication PMC2656448.
pKd: −log10 of the molar value.

Target: Histone H3 (H3K4me0) (Homo sapiens) (UniProt P68431)

pKd: 5.30
Substance: AIRE PHD1 (from UniProt O43918)
